Assay results taken from patent publication US20200096514.

T1: LAS-Q (not fully specified)
T1 chain: GLGGGAGK

T2: ELA-Q (not fully specified)
T2 chain: GAAFAGK


Assays:
LAS-Q = biological target: T1, LAS-Q
ELA-Q = biological target: T2, ELA-Q

Protein	cleavage of LAS-Q by P. aeruginosa culture supernatants (fluorescence) set against LasA content by Western blot (LAS-Q)	reversal of FRET-quenched fluorescent signal (cleavage) (LAS-Q)	reversal of FRET-quenched fluorescent signal (cleavage) (ELA-Q)
LasA protease of Pseudomonas aeruginosa (secreted, in culture supernatants) (protein) APPSNLMQLPWRQGYSWQPNGAHSNTGSGYPYSSFDASYDWPRWGSATYSVVAAHAGTVRVLSRCQVRVTHPSGWATNYYHMDQIQVSNGQQVSADTKLGVYASNINTALCEGGSSTGPHLHFSLLYNGAFVSLQGASFGPYRINVGTSNYDNDCRRYYFYNQSAGTTHCAFRPLYNPGLAL	the non-cleaving strains lacked LasA in their supernatant, whereas supernatant from the substrate-cleaving strains contained substantial levels of LasA protein	–	–
recombinant mouse neutrophil elastase (protein) SEIVGGRPARPHAWPFMASLQRRGGHFCGATLIARNFVMSAAHCVNGLNFRSVQVVLGAHDLRRQERTRQTFSVQRIFENGFDPSQLLNDIVIIQLNGSATINANVQVAQLPAQGQGVGDRTPCLAMGWGRLGTNRPSPSVLQELNVTVVTNMCRRRVNVCTLVPRRQAGICFGDSGGPLVCNNLVQGIDSFIRGGCGSGLYPDAFAPVAEFADWINSIIRSHNDHLLTHPKDREGRTN	–	ELA-Q and-to a lesser extent, LAS-Q-are each cleaved by neutrophil elastase	ELA-Q and-to a lesser extent, LAS-Q-are each cleaved by neutrophil elastase
